Non-standard residues stand in square brackets, D forms with d. No end group written: not given here. *: point of attachment. FITC = O=C1OC2(c3ccc(O)cc3Oc3cc(O)ccc32)c2ccc(NC(=S)*)cc21; pS = N[C@@H](COP(=O)(O)O)C(=O)O; Ahx = NCCCCCC(=O)O
Legend:
Assay in all cases: fluorescence polarisation; 14-3-3 isoforms (full length) serially diluted twofold in the presence of 10 nM FITC-labelled peptide; 50 mM Tris pH 7.5, 150 mM NaCl, 5 mM MgCl2, 0.05% Tween-20 (no reducing agent listed); one-site specific binding model
Conditions in all cases: both partners purified
14-3-3γ (full length) = target: T1, 14-3-3γ (full length) (human, UniProt P61981 1-247)
T1 construct: 14-3-3 protein gamma, human, full length; Expressed from a pPRoeX-Htb vector; also called 14-3-3 isoform γ; source: E. coli NiCo21(DE3), purified (nickel column, TEV cleavage, second nickel column, SEC)
T1 sequence (looked up): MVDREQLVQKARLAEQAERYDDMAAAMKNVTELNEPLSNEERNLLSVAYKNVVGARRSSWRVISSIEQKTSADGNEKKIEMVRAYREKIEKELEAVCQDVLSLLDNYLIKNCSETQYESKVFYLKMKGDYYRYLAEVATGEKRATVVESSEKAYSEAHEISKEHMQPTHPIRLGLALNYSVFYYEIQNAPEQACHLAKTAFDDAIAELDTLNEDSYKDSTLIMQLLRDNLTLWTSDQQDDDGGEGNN

14-3-3η (full length) = target: T2, 14-3-3η (full length) (human, UniProt Q04917 1-246)
T2 construct: 14-3-3 protein eta, human, full length; Expressed from a pPRoeX-Htb vector; also called 14-3-3 isoform η; source: E. coli NiCo21(DE3), purified (nickel column, TEV cleavage, second nickel column, SEC)
T2 sequence (looked up): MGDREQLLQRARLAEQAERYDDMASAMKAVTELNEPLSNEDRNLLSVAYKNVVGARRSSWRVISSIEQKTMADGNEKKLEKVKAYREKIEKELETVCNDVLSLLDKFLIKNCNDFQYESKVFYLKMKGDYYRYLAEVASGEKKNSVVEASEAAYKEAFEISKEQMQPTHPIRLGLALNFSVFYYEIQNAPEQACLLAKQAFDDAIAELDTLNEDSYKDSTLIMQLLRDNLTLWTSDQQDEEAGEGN

14-3-3τ (full length) = target: T3, 14-3-3τ (full length) (human, UniProt P27348 1-245)
T3 construct: 14-3-3 protein theta (tau), human, full length; Expressed from a pPRoeX-Htb vector; also called 14-3-3 isoform τ; source: E. coli NiCo21(DE3), purified (nickel column, TEV cleavage, second nickel column, SEC)
T3 sequence (looked up): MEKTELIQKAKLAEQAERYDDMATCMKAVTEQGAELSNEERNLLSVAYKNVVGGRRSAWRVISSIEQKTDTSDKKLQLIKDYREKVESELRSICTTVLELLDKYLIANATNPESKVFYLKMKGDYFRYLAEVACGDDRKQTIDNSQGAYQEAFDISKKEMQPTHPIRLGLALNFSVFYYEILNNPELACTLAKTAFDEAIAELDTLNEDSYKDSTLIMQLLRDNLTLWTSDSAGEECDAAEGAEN

B1: SHN3pS542 peptide, N-terminally FITC-Ahx-labelled (peptide)
peptide: {FITC-Ahx}-LLRSH[pS]MPSAAC
modifications: also: phosphoserine at 542, position not mapped
notes: Schnurri-3 (SHN3, transcription factor HIVEP3), human, 12-mer around phosphorylated Ser542; also called SHN3pS542-FITC; the FITC-labelled form; source: synthetic peptide, bought: GenScript (purity >95%)
Kd (14-3-3γ (full length)): 780 ± 50 nM
Kd (14-3-3η (full length)): 690 ± 60 nM
binding result (14-3-3τ (full length)): binds

Reference: article PMC8329713, “The identification and structural analysis of potential 14-3-3 interaction sites on the bone regulator protein Schnurri-3” (Acta Crystallographica. Section F, Structural Biology …, 2021)
